Laboratory results reported in US20220185894A1 (F STAR THERAPEUTICS, published 2022).
Numbering of substitutions follows the chain as printed. Where “and” joins values, the source holds several entries; their conditions need not be identical. Equal entries are not always repeated.

T1: recombinant Fc-tagged human LAG-3 (R&D Systems, 2319-L3-050) (human, UniProt P18627 23-450)
T1 construct: Bought protein; also called LAG-3 Fc; human LAG-3-Fc; not shown: Fc tag of the bought fusion protein
T1 sequence: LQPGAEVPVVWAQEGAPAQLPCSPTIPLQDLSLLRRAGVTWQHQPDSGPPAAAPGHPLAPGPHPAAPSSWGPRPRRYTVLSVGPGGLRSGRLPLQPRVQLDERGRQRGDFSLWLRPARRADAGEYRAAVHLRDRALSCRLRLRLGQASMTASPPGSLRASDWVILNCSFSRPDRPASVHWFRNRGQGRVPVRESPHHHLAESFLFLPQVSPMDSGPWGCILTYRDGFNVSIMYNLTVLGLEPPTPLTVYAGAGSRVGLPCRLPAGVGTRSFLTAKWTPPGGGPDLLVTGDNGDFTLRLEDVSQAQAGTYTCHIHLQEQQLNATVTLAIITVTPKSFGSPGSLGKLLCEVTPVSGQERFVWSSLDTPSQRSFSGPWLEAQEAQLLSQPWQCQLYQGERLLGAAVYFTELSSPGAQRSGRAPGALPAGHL

B1: anti-human LAG-3/PD-L1 mAb2 FS18-7-32/84G09 with LALA mutation (bispecific antibody, human IgG1, kappa, L234A L235A)
heavy: EVQLVESGGGLVQPGRSLRLSCAASGFTFDDYAMHWVRQTPGKGLEWVSGISWKSNIIGYADSVKGRFTISRDNAKNSLYLQMNSLRAEDTALYYCARDITGSGSYGWFDPWGQGTLVTVSSASTKGPSVFPLAPSSKSTSGGTAALGCLVKDYFPEPVTVSWNSGALTSGVHTFPAVLQSSGLYSLSSVVTVPSSSLGTQTYICNVNHKPSNTKVDKKVEPKSCDKTHTCPPCPAPEAAGGPSVFLFPPKPKDTLMISRTPEVTCVVVDVSHEDPEVKFNWYVDGVEVHNAKTKPREEQYNSTYRVVSVLTVLHQDWLNGKEYKCKVSNKALPAPIEKTISKAKGQPREPQVYTLPPSWDEPWGEDVSLTCLVKGFYPSEIAVEWESNGQPENNYKTTPPVLDSDGSFFLYSKLTVPYDRWVWPDEFSCSVMHEALHNHYTQKSLSLSPG
light: DIQMTQSPSSLSASVGDRVTITCRASQSISSYLNWYQQKPGKAPKPLIYVASSLQSGVPSSFSGSGSGTDFTLTISSLQPEDFATYYCQQSYSNPITFGQGTRLEIKRTVAAPSVFIFPPSDEQLKSGTASVVCLLNNFYPREAKVQWKVDNALQSGNSQESVTEQDSKDSTYSLSSTLTLSKADYEKHKVYACEVTHQGLSSPVTKSFNRGEC
notes: also called FS18-7-32/84G09LALA; F518-7-32/84G09LALA
B2: anti-human LAG-3/PD-L1 mAb2 FS18-7-95/84G09 with LALA mutation (bispecific antibody, human IgG1, kappa, L234A L235A)
heavy: B1 heavy with E381D, Q391Y, P392Q, N394D
light: B1 light
B3: anti-human LAG-3/PD-L1 mAb2 FS18-7-36/84G09 with LALA mutation (bispecific antibody, human IgG1, kappa, L234A L235A)
heavy: B1 heavy with E381D, F409Y
light: B1 light
notes: also called FS18-7-36/84G09LALA
B4: anti-human LAG-3/PD-L1 mAb2 FS18-7-65/84G09 with LALA mutation (bispecific antibody, human IgG1, kappa, L234A L235A)
heavy: B1 heavy with E381D, Q391Y, P392A, N394Y
light: B1 light
notes: also called FS18-7-65/84G09 LALA; F518-7-65/84G09LALA
B5: anti-human LAG-3/PD-L1 mAb2 FS18-7-58/84G09 with LALA mutation (bispecific antibody, human IgG1, kappa, L234A L235A)
heavy: B1 heavy with E381D, Q391Y, N394I, N395E, Y396F
light: B1 light
notes: also called F518-7-58/84G09LALA
B6: anti-human LAG-3/PD-L1 mAb2 FS18-7-33/84G09 with LALA mutation (bispecific antibody, human IgG1, kappa, L234A L235A)
heavy: B1 heavy with E381D, N394D
light: B1 light
notes: also called FS18-7-33/84G09LALA; F518-7-33/84G09LALA
B7: anti-human PD-L1 mAb 84G09 (without LALA mutation) (antibody, human IgG1, kappa)
heavy: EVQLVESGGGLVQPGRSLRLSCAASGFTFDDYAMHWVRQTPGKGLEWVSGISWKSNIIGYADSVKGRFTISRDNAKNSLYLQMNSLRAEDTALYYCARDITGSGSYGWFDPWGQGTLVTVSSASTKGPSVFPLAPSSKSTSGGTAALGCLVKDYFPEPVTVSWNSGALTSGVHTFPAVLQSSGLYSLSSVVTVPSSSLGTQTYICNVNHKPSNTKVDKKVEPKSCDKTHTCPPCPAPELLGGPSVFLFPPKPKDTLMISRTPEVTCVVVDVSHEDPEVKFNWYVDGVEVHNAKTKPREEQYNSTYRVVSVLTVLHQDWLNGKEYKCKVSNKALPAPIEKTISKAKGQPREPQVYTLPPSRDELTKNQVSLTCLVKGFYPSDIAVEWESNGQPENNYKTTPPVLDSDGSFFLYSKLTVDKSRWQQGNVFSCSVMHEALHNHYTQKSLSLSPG
light: B1 light
notes: Human IgG1; also called 84G09 (parental); parental anti-PD-L1 mAb
B8: anti-human LAG-3/PD-L1 mAb2 FS18-7-88/84G09 with LALA mutation (bispecific antibody, human IgG1, kappa, L234A L235A)
heavy: B1 heavy with E381D, Q391V, N394L, Y396V
light: B1 light

target: T2, human PD-L1 expressed on cells (human, UniProt Q9NZQ7 19-290); experiment: cell-based or functional assay
T2 sequence (Q9NZQ7 19-290 limits assumed): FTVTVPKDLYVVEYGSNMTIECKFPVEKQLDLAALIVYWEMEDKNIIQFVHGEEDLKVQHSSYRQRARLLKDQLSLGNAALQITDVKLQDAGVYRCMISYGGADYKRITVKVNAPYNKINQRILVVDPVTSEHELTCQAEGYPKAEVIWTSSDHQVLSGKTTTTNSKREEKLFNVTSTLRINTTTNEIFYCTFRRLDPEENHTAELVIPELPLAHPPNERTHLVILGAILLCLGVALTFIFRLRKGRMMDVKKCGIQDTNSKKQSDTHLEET

Maximal IL2 release calculated as % ctrl (84G09 + 25F7) [%]	Binder
82.9	B1
79.8	B2
71.6	B3
70.2	B4
79.4	B5
64	B6

target: T2, human PD-L1 expressed on cells; experiment: flow cytometry on HEK cells expressing human PD-L1
Method: (§1) HEK cells expressing human or cynomolgus PD-L1 grown in DMEM (Life Technologies, 61965-026) containing 10% FBS (Life Technologies, 10270-1-6), 100 μg/ml Hygromycin B (Melford Laboratories Ltd, Z2475), 15 μg/ml Blasticidin (Melford Laboratories Ltd, B1105) and 1 μg/ml Doxycyclin (Sigma, D9891) were detached from tissue culture flasks using cell dissociation buffer (Life Technologies, 13151-014) and seeded in V-bottom 96-well plates (Costar, 3897) at 2×10⁵ cells/well. The plates were centrifuged at 1500 rpm for 3 min at 4° C. to pellet the cells. A dilution series of the mAb² (or control mAb) was incubated with the cells in a 100 μl volume for 1 h at 4° C. The plates were washed and secondary antibody (Anti-human Fc-488, Jackson ImmunoResearch, 109-546-098) was diluted 1:1000 in PBS and 100 μl was added to the cells for 30 min at 4° C. (plates were kept in the dark). The plates were washed then cells were resuspended in 100 μl PBS containing 1 μg/ml DAPI (Biotium, 40043). The plates were read using Canto II flow cytometer (BD Bioscience). Dead cells were excluded and the fluorescence in the FITC channel (488 nm/530/30) was measured. The data was fit using log (agonist) vs response in GraphPad Prism Software. The plates were read on a BD FACSCanto II cytometer (BD Biosciences) and the data analysed using FlowJo.

EC50	Binder
3.82 nM	B1
3.11 nM and 3.05 nM	B7
3.91 nM	B3
4 nM	B4
3.77 nM and 3.91 nM	B5
3.45 nM and 3.23 nM	B6
3.49 nM	B8

target: T3, cynomolgus PD-L1 expressed on cells (cynomolgus monkey, UniProt Q9NZQ7 19-290 (human entry)); experiment: flow cytometry on HEK cells expressing cynomolgus PD-L1
T3 construct: also called cPD-L1; cyno PD-L1
T3 sequence (Q9NZQ7 other isoform, or with tags, fused parts or gaps limits assumed): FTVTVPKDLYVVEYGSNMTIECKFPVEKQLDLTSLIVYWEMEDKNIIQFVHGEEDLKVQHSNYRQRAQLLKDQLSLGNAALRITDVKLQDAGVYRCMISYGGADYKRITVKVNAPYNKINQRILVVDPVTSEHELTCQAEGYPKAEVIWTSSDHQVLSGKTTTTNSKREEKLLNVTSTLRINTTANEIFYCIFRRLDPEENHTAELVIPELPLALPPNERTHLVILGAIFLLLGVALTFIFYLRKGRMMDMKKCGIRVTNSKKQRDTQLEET
Method: as §1

EC50	Binder
1.98 nM	B1
1.64 nM and 1.96 nM	B7
2 nM	B3
1.84 nM	B4
1.86 nM and 2.03 nM	B5
1.9 nM and 1.73 nM	B6
1.81 nM	B8

target: T4, human PD-L1 Fc (R&D Systems, 156-B7) (human, UniProt Q9NZQ7 19-239); experiment: SPR, BIAcore T200; mAb2 captured on Protein L, PD-L1 Fc injected
T4 construct: Bought protein; not shown: Fc tag of the bought fusion protein
T4 sequence (Q9NZQ7 19-239 limits assumed): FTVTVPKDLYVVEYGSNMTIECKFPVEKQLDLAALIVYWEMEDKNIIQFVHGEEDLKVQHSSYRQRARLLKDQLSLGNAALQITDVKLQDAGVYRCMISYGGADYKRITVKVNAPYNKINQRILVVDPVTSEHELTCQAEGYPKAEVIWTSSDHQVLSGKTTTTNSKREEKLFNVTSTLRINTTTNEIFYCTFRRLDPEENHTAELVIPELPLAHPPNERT
Method: (§2) Protein L (Thermo, 21189) was immobilized on flow cells 1 and 2 of a Series S CM5 chip (GE Healthcare, BR-1005-30) by amine coupling (GE Healthcare, BR-1000-50) to a surface density of 2000 RU by following the manufacturer's instructions for the BIAcore T200 instrument. […] The association time was 3 min and the dissociation time was 6 min. Running buffer was HBS-P (GE Healthcare, BR-1003-68). Both flow cells were regenerated by injecting 10 mM sodium hydroxide (NaOH) at a flow rate of 100 μl/min for 20 seconds. The data were analysed by double referencing against the blank flow cell.
(§3) The binding kinetics were fit with a 1:1 Langmuir model to generate binding association (kₐ) and dissociation (kd) rates. Equilibrium binding constants (KD) were calculated by dividing the dissociation rate by the association rate for each sample. Data analysis was performed with BiaEvaluation software version 3.2.

Kd [nM]	koff [s⁻¹]	kon [M⁻¹ s⁻¹]	Binder
1	0.00032	340000	B1
3.5	0.00056	160000	B3
1.1	0.00014	130000	B4
1.1	0.00042	370000	B6

target: T1, recombinant Fc-tagged human LAG-3 (R&D …); experiment: SPR, BIAcore T200; mAb2 captured on Protein L, human LAG-3 Fc injected
Method: as §2, §3

Kd [nM]	koff [s⁻¹]	kon [M⁻¹ s⁻¹]	Binder
0.049	0.00028	5.6e+06	B1
0.038	0.00017	4.4e+06	B3
0.039	0.00023	5.9e+06	B4
0.043	0.00018	4.2e+06	B6
